Test results published in the Human Domainome abundance scans (Beltran et al. 2025).

B1: Nucleosome-remodeling factor subunit BPTF, residues 2862 to 2918; numbered along this chain, Q12830 (parent)
chain: TKKDTKLYCICKTPYDESKFYIGCDRCQNWYHGRCVGILQSEAELIDEYVCPQCQST

Variants of: B1
Assay: abundance fitness (aPCA) (normalised: wild type 0, dead -1); higher = more abundant; growth selection in yeast, the domain comes from the species named
Conditions: Homo sapiens

Abundance fitness of substitutions, site by site:
V50: I -0.013, G -0.672, N -0.203, S -0.167, R -0.145, A -0.252, M -0.159, K -0.102, T 0.037, L 0.015, Y -0.357, F -0.099, C -0.228, H -0.288, P -0.558, D -0.268, W -0.156, Q -0.191, E 0.132
Y49: M -0.481, C -0.761, G -0.526, F -0.069, S -0.427, H -0.491, L -0.36, D -0.715, V -0.381, P -0.494, R -0.47, A -0.382, T -0.447, W -0.055, Q -0.615
G33: M -0.446, K -0.271, T -0.238, I 0.011, W -0.445, S -0.2, N -0.357, V -0.098, P 0.053, Y 0.053, Q 0
L39: E 0.225, F -0.006, R -0.033, A -0.306, T -0.08, G -0.116, P 0.102, D -0.062, W -0.326, V -0.286, S -0.024
A43: G -0.028, M -0.13, T -0.148, D -0.392, N -0.251, V -0.036, L -0.144, F -0.17, H 0.013, P -0.167, S -0.119, I 0.016, W -0.182, K -0.025, Y -0.074, Q 0, R -0.076, E -0.226
S41: T 0.069, H -0.152, Q -0.07, M -0.137, G -0.105, E 0.017, L -0.198, C -0.213, I -0.507, F -0.173, Y -0.132, R 0.019, A -0.146, W -0.207, K -0.015, N 0.038, D -0.071, P -0.106
Q53: E -0.009, I 0.09, C -0.16, H -0.017, K -0.122, A -0.052, G 0.028, L -0.047, D 0.037
I46: Q -0.058, A -0.176, H -0.11, L -0.027, T 0, G -0.254, F -0.163, S -0.095, P -0.03, V -0.073, M -0.037, R -0.045, N -0.098, E -0.228, D -0.365, C -0.483, Y -0.282, W -0.154
P52: L -0.125, A -0.058, G -0.019, T -0.071, S 0.054, D 0.113, E 0.009, R -0.048, F 0.032, Y -0.327, M -0.149, I -0.108, W -0.345, K 0.126, V -0.017, Q -0.033, C -0.186
I38: R -0.234, F -0.182, G -0.489, C -0.582, M -0.084, Y -0.059, N -0.547, K -0.278, P -0.428, A -0.452, H -0.342, E -0.44, T -0.146, W -0.46, L -0.014, D -0.432
E48: N 0.076, F -0.262, I -0.063, C -0.009, P 0.086, L -0.139, K -0.109, S 0.051, Y -0.125, G -0.112, Q -0.161, A -0.008, V -0.022, R 0.055, T -0.002
